B1: Interferon-induced helicase C domain-containing protein 1 (Homo sapiens), Q9BYX4 (parent)
chain: MSNGYSTDENFRYLISCFRARVKMYIQVEPVLDYLTFLPAEVKEQIQRTVATSGNMQAVELLLSTLEKGVWHLGWTREFVEALRRTGSPLAARYMNPELTDLPSPSFENAHDEYLQLLNLLQPTLVDKLLVRDVLDKCMEEELLTIEDRNRIAAAENNGNESGVRELLKRIVQKENWFSAFLNVLRQTGNNELVQELTGSDCSESNAEIENLSQVDGPQVEEQLLSTTVQPNLEKEVWGMENNSSESSFADSSVVSESDTSLAEGSVSCLDESLGHNSNMGSDSGTMGSDSDEENVAARASPEPELQLRPYQMEVAQPALEGKNIIICLPTGSGKTRVAVYIAKDHLDKKKKASEPGKVIVLVNKVLLVEQLFRKEFQPFLKKWYRVIGLSGDTQLKISFPEVVKSCDIIISTAQILENSLLNLENGEDAGVQLSDFSLIIIDECHHTNKEAVYNNIMRHYLMQKLKNNRLKKENKPVIPLPQILGLTASPGVGGATKQAKAEEHILKLCANLDAFTIKTVKENLDQLKNQIQEPCKKFAIADATREDPFKEKLLEIMTRIQTYCQMSPMSDFGTQPYEQWAIQMEKKAAKEGNRKERVCAEHLRKYNEALQINDTIRMIDAYTHLETFYNEEKDKKFAVIEDDSDEGGDDEYCDGDEDEDDLKKPLKLDETDRFLMTLFFENNKMLKRLAENPEYENEKLTKLRNTIMEQYTRTEESARGIIFTKTRQSAYALSQWITENEKFAEVGVKAHHLIGAGHSSEFKPMTQNEQKEVISKFRTGKINLLIATTVAEEGLDIKECNIVIRYGLVTNEIAMVQARGRARADESTYVLVAHSGSGVIEHETVNDFREKMMYKAIHCVQNMKPEEYAHKILELQMQSIMEKKMKTKRNIAKHYKNNPSLITFLCKNCSVLACSGEDIHVIEKMHHVNMTPEFKELYIVRENKALQKKCADYQINGEIICKCGQAWGTMMVHKGLDLPCLKIRNFVVVFKNNSTKKQYKKWVELPITFPNLDYSECCLFSDED
partner: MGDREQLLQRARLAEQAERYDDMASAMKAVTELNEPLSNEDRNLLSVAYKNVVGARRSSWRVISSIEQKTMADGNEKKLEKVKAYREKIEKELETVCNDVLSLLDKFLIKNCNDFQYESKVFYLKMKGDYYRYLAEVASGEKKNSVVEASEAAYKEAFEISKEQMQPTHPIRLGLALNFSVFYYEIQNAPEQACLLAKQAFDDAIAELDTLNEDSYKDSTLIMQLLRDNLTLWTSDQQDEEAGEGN
B2: Interferon-induced helicase C domain-containing protein 1 (Homo sapiens), Q9BYX4 (parent)
chain: B1 chain

Variants of: B1
Conditions: with 1433f_human YWHAH
For K23R;K43R, the “effect of a mutation on the interaction” value was “with no effect”.
With K68R the “effect of a mutation on the interaction” value was “with no effect”.

Variants of: B2
Conditions: with isg15_human ISG15, P05161
Sequence of isg15_human ISG15, P05161 (P05161 whole entry): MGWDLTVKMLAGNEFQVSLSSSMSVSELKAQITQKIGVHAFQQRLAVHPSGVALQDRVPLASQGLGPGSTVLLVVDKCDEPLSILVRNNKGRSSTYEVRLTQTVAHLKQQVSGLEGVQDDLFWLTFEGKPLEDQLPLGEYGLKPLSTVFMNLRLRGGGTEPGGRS
In the case of K169R, the “effect of a mutation on the interaction” value is reported as “with no effect”.
In the case of K23R, the “effect of a mutation on the interaction” value is reported as “decreasing interaction strength”.
K137R was tested, and the “effect of a mutation on the interaction” value was “with no effect”.
For K128R, the “effect of a mutation on the interaction” value was “with no effect”.
With K235R the “effect of a mutation on the interaction” value was “increasing interaction strength”.
For K68R, the “effect of a mutation on the interaction” value was “decreasing interaction strength”.
K174R was tested, and the “effect of a mutation on the interaction” value was “with no effect”.
K23R;K43R was tested, and the “effect of a mutation on the interaction” value was “disrupting interaction strength”.
In the case of K43R, the “effect of a mutation on the interaction” value is reported as “decreasing interaction strength”.
